The NTF2 design screens of Basanta et al. (2020)

Assay: protease stability score; higher = more stable; yeast display proteolysis, trypsin and chymotrypsin;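 also: relative to predicted unfolded state with 0 unfolded-like and 1 meaning tenfold more protease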

Row | Sequence | protease stability score
1 | DDRDEVVEVASRLWMEIVETGDEDLFIRLLDPRTRIHIGDKTLHGREQVLDFLREHNRNLGIDRVEVRVERTEIQGEKVVVHSINIFNGKEWHVITIAHKINGRWITKEFHLH | 0.834
2 | DDRDREARKLIQEITHALHTGDEELMEHMLDPSVRTNINGKDIHGMDLFYKWLIELVRRLGADHLNFEVKRVQLYGNKLNTDGHLFVHQGDFTILLNVRWYNLKVNGKWIHESIEIR | 1.45
3 | DDREEDLHKALHLFRMTMLTGNEDLFRDLADPHTRVSVNGQELIGREHMEHWWKRVDHIEDSRLERVDIVDGVVLVDGRFVGTVNGRRIDTEYTIFAQKVNGQWILHSVKIV | 1.19
4 | DDREEELQHLMELILFLLVTGNEEIWMRMADPDVKSRISIGDKQETYHGRETVARYMIHERHFYKNIQVKFDDVQVQGDKVIVILTFHWNGREIEVIHTFIVINGKLTSWEVRFIHR | 1.42
5 | DDREEELRKMTELMLKAEQTGDEDHWMHLADPHVRVIVNGREFIGREEWARHHEEHRRKVKNIRIHVRIRDSEVQGDKLILDTELELRIGDKTIIRDVEINMTIINGRLRSLEIRIK | 1.17
6 | DDREEHAKELVDLFQKVMLTGDFKTLEELIDPNYRLHVNGQDVHGMERVIRHIFHMRFQDVKVKRIDHQGNKIDMDVRSIVNVDGRLHEHEIQLIALKVDGRWTVKSLEVH | 1.48
7 | DDREEKIKRAWETFVHNVRTGDEDSNEELADPNVKVLFNGREFHGMEQLSKFFKHLRVHDFVLKDIRVVGDKVHVEGLVDGEINGKRELTTMHMVFIKFNGRWIIQSVEFK | 1.53
8 | DDREKDSKREVKEFLEMFITGDEERWSKMADPNVRLHFDGVESHGREEALRIMRLLLEQFKNLKVTDVQLTSIEIQGEKALIRTRIHTEVNGKEDSLDVILFATKFDGRWIINSIEIR | 1.1
9 | DDREKETQEFFERWVEAFITGDEHDLHEMLDPHARIHLIIGDKKEDLHGRESAVEVMKRIDHKHEFRIRHLWIFDGRIHVDVKLTGHFDGRTYQHDVHINIKIVDGKIHSIQIEWR | 2.22
10 | DDREKFWKELAKEWFKSLITGDEDSLRKLLDPDVRTIVGDWHIHGMEEVLKFWLELRISDHDSKRIIVINGVNLNDIRSNGNVNGVERETRVELIIEVVDGRVRRVEFRMK | 2.01
11 | DDREKLWHRLVELEKELWLTGDFEDFHSLADPNVQLIVHFDGQEVHYHGRESVTMALKILREQLGADHFEPKSVHYQGNKMQTSMILFVNGREFEFRLTLFVIDGRLKSHHIEWK | 1.48
12 | DDREKYLTKLMELFIEHWRTGDEEAFLEYFDPHVRIEHIFNGQETRRHGRELFSILLTHEWLFFKNVRIHWKRSEVQGEKTVIHMELHVGDKSLKVRIHLDVVDGRVRSVNIEIE | 0.548
13 | DDRERATRELLKLLWDAMKTGDEELFYKLADPDTRMIINGRELHGMEEVSRILLELLTHMRLKNITIRDIDVQGDKVDVHGELHGEVGDKSHTFETHIIILKVNGKWVLRSYIIR | 1.55
14 | DDRERDLRELFKRLHEVLETGNEEEMTELIDPHARRTVGDKKIHGRELIAKHLVHEVLRYDHWHLEMHDWRFQGEKIELHGNFRIEVDGKQIVIDTRLTATKVDGRWRITEIRII | 0.743
15 | DDRERDSREAQEILREILLTGDFKTLYELADPHYRHNWDGRTIHGMETIVKLFLDLGMEIRDMRFRHLEIQGDFIHLDVDINGRINGKEKNVKIRVHARKIDGRWVLHSSERD | 1.38
16 | DDRERERHRFLRELHESLETGDERELTRMLDPHARWVVGDKQHHGRETLTKFVSEVALRADHFHIEISRVREQGEFIDIDVRVILIIGDKVITIDQRLINLKVDGRWFLHERIVH | 1.05
17 | DDRERESEEALRLFIETLETGDEHWLKRLMDPNARLHQGEKTIHGMDIFSTWVVEARLKHYHLERVHIQGDKMDVESHVDGHVNGQRLKVQLIFHSLKIDGRWLVKHIIVH | 1.4
18 | DDRERESKEAVEFFLHAVDTGDFDRIREMLDPHMRVEIDGQEFHGRERALDLIHKEMFDLGVDRIRIEIHDMELVDGRVEVDVHVDVNGRIIRSEYIMKKIDGRWRIHSIKRR | 1.98
19 | DDRERLTKLMSDDFIFSMLTGDEHFMHELIDPHARFLFNGQVHHGWKTMEFWREHLGIDNIHLQIRISDLEIQGDKATVRIDGEVKQGDKSFRTRFIIKVDKIDGRWVIHELRIIVL | 1.07
20 | DDRERQAESMMHLWLEVLLTGDEDRLMKLADPNTRHHVNGVDAHGRENIKRVAKEFDEQMRIHRVEIRQVRIIGDKTEVDGRVDVEVNGRRRDTETHLRVIVIDGRIHEVHLIIR | 0.725
21 | DDRESIAEAVIRHMVEDFRTGNEDNMKRLFDPNTQLRYGDKTHHGWEDVVELLYHDIKHFGIKHVSVDRISVIGEKIHIDMRVEVGDKELTLHFTVDKINGKWKFESVERR | 0.849
22 | DDRHEENKEITRRQFELFETGDEEILHHLADPHVRLRIDGQHNHGREELERSLRELRKELGANVLILRRIRVIGDKMEVEGEFDYNGRNFHATFRFNVIDGRLHSMSIEIR | 0.832
23 | DDRIRQVVEEWWKAVETNDPDKAKENVDKDVRVEVGDKQFRGSETLEKRIRDEKDHARVVVRMQSVSVHGDTVDVTYNVVVEVNGNPLRFKAQAFFRARNGRMQSIQFSFSKEDKKRVDG | 1.78
24 | DDRKEMSEEASEIFLHLLATGDERTERKLLDPHVRLIIGDKHLHGREEFVRFKHEEMRDLGVTNVEVREKDVKVYDGKIELHGHFNVNGKWVEIHVIAEKFNGRWILKRVNFH | 0.875
25 | DDRKKEAHELFEFLLDVFRTGDEKSTEELLDPHTRNVIGDKHYHGRDVWVTFMKKFKNAKVHFNHLEVQGDKVTFDITFEIGDKTHRMRFFLEKYDGRWFIKEIQVD | 1.44

Row | Sequence | protease stability score
26 | DDRKKEAQRILELFLKIWETGDEEELLKLLDPNVKLHIGDKNIHGMEEATRILTENVREIRTHIVHKRVHIQGDKVELEGELRIHVNGREESNRVHYELIVVNGKVKAIHVHLE | 1.16
27 | DDRSEHAIHAFYEWWERFLTGDEKRLYELADPNTRLHVNGQRIHGMEEIMERILDLLKRVKNMRVDFDVRDVELQGDKIILRIEIILKYNGQKVRIDVHIISRKINGRWFLEQEREE | 0.558
28 | DDRYRLVEHMSRHFFENWLTGDFDRLVELADPTVRSHFEYGDKEILNIGMEEHVKMERHWREKMGANHLFLDDVRIQGNKAHIHGQLDVGDKHNRARLELNIVDGRIKEIYIEIR | 0.018
29 | DDSAKWTEIALKIKSHDSDTGNEEKIRRLLDPNVRIEINGQEIHGRDKISKWLSEIRIQIEHVDTERYELQGNKAIVDGRMHIKVSYGDKEMHFDIKFEIEVHKVDGQWLIHSERII | 0.754
30 | DDSDEHTKRATDELRHNLRTGDEERILKLVDPNARIDINGVKVIGWHMVEELVRKFWEEMRVEELEIHDMKVYGDKAIVDGYVEQRQGNKFIYIKTEIIKVKIDGRWILTELRFR | 0.57
31 | DDSDQANKIMLEVLRRKLDTGDEDSIRKLADPHARIVIGDKTIHGMDEHTNELRHMLELWGVDRVELHIRHVEKQGDKLRVDGELHFNGVSVRVIFLHEKINGRWFMRHTEIR | 0.984
32 | DDSEEDALRILELLSDSMETGNWRLVSELLDPHVRLEVGDKTWVGMEEMKRLANQIRIHVHRVKFHHIDNFNGRVRVDGHIHGEIIVGDKIYRFRTRIEIDAVKINGQWVIEEMRIG | 1.61
33 | DDSEEHAEEVVRELSESLRTGDEKSVDRLLDPNVKFIINGVEYVGRELFLELFKKTLEEIRIESIEVTHIDIQGEKVRLETKEHAIINGKRFQFKTEVIMRKVNGRWEIQELRFE | 1.98
34 | DDSEHWARRFIHLLKRSLETGDEHLNKELADPHARIEVNGRELHGREDFSETLVRMGFNHVHITDFDVQGDKIELHIETDVGDKKIQVEFIVEKVNGRWLNRSMHIRIH | 0.832
35 | DDSERILRWFWNVLAESIETGDEEVMKELFDPNTRIHVNGQDHIGMEHRTRLASEMRITLYRVDLKRIHEVDGRIVLHIEVETHGTINGRLEHSKVRVQIIVSKIDGKWRMHQVEVK | 1.38
36 | DDSHKKLKHAFELLLHALRTGDEDLLKELIDPEVRILFNGKIFHGREWWEHLLRHIRFKDIHIKNIDIQGDKLRVDSRLHIIIDGRHVDFEAEFYIVKVDGRWFTEEIVIK | 2.21
37 | DDSQDIAKTMVDIITKNSLTGDEENFEHLVDPDARLTVNGVELHGREDVVRWMKHARIHDTRVRHIRVQGNKIEVDSESRVDINGKENEMKFKLIFIKVNGQWHIRDIEIR | 2.13
38 | DDSRRVAEEVSELIKILYDTGDWRHLHELLDPHVRIEIGDKEFHGRDTWLREMIRADHVEYHTHDYRSQGNKIFIRGHLIVHINGRTHKEDVRLHVHKVDGQWIIDSIEMK | 1.01
39 | DDSSELLRKLLEELLRAYKTGDFDTLIEFFDPDVKLEFNGREVHGMDHFISEHRHFIRRFPGIRIHIDDVKWHTQGDKAQLHMDGTEDFDGKRRRVELIFIIEKFDGRWFFSSIRWHNI | 1.53
40 | DDTDKLLKEYLEMEMEMIRTGNEHIFTRLADPNVRIEQGDKHFHGREEYKRLMEEHFEKIQHAKIEFRVHDIKRIGDKMYIRGEFIVHVGEYHESQDRIFINRKIDGRWYVEEIIIR | 1.25
41 | DDTDRRSRILTELSLNLFRTGDWKLFEEMADPHARMSMDVDGKELRHHGRESVSHVWHRQLFELGVDHYDLHDVKVIDGVMHVFSEVKVGDKRLELLIVAEKVNGKWHIREVHIKII | 0.202
42 | DDTEDLATELSKIIRTVLRTGDWHTLRELADPNMRLNVNGQERHGMDLVREIHLNAGWQRVTVIIRHLHIDENEMHLETETRYDGQKHRVHVHVKKINGRWVIDFIIIH | 1.09
43 | DDTKKHMEKIFRLMIEWWETGDFDRMENNADPHVRAHIGDKEIHGREEMIKLIRELIEELGIDHEETEEVRVYDGRIHVHSRLHINGKEIEVQLHSQVVDGRIESFELHVITR | 1.05
44 | DDTLRDLFHLIELFHKALKTGDEQKMRENLDPHAKFDWDGRDYVGMEEVVKYVVEARIESTFHIHSVRKIGNKLDVDGTFSLEVDYNGKKEDIHSRQHHFIYKVDGQWIIKRIIIK | 0.537
45 | DDTRELSKHWHERWLHAHETGDEELLLSLLDPHVRLEVGDKHLIGRDKLKWHMEEEIEFFKNAKLHVRRVSIQGNKIEMELEVRIDGVRHEVHIHYDIIDGRITRFEVRIV | 0.21
46 | DDVEKDARWLVDELIHLLETGDEDTLLKLADPNTRIEIGDFHFHGRRDLKRILHEMRVKLDHLRIEHLDAQGEWIYIQFHYHQTINVNGRVVHEQRRVELESIKINGRWTIHFFKVK | 1.28
47 | DDVEKLTREWFEKYLHTIQTGDEHSFERLADPNVRLHAENREYHGMEVISERLREEQDKFKGLRITHFHITHIINNEDEMYVDGRIVVEWNGQKEILTVHLIAFKVNGKWILKRYVKK | 1.78
48 | DDVERIVKHMLELHIQSWLTGNEHLMHRLADPNVRSHIGDKERVGRHELSEMMIKHWEHLRIHRVEIRDSDVVGEKAESNTHVVVIFNGVEVRFDVRIEVVSINGRLHSSHIIIE | -0.029
49 | DDVHEDATRAIKILKHNLETGDEDKLMTMMDPNVRFEDGNKHAHGREQTVQVLLEIIEKLGVSKFSHEIKDLKIVDGKLHLHGTLKVDGKTVDLEVVSLKINGRWLIKSIHLH | 1.19
50 | DDWEEEVHKFSRLFIKSVETGDEDTLHKFADPNVMLHQGDKEYHGREMFVRWSNELLRHLGVSKVRARMHDDKAYNGVVHLDLENRFNGRTVRIEVRIEKINGKWLMTEVRIE | 0.622
